Data published in patent US20240043552A1 (Eli Lilly, published 2024).
Substitutions are numbered along the chain they refer to. In names and notes the source's numbering stands.

B1: MetMAb × Matuzumab IgG BsAb, CH1/Cκ Wild-Type (AB / H4DR variable domain designs, 7.8.60 CH3, N297Q) (bispecific antibody)
heavy 1: EVQLVESGGGLVQPGGSLRLSCAASGYTFTSYWLHWVRKAPGKGLEWVGMIDPSNSDTRFNPEFKDRFTISADTSKNTAYLQMNSLRAEDTAVYYCATYRSYVTPLDYWGQGTLVTVSSASTKGPSVFPLAPSSKSTSGGTAALGCLVKDYFPEPVTVSWNSGALTSGVHTFPAVLQSSGLYSLSSVVTVPSSSLGTQTYICNVNHKPSNTKVDKKVEPKSCDKTHTCPPCPAPELLGGPSVFLFPPKPKDTLMISRTPEVTCVVVDVSHEDPEVKFNWYVDGVEVHNAKTKPREEQYQSTYRVVSVLTVLHQDWLNGKEYKCKVSNKALPAPIEKTISKAKGQPREPQVYTLPPSREEMTDNQVSLTCLVKGFYPSDIAVEWESNGQPENNYKTTPPVLMSDGSFFLASKLTVDKSRWQQGNVFSCSVMHEALHNHYTQKSLSLSPG
light 1: RIQMTQSPSSLSASVGDRVTITCKSSQSLLYTSSQKNYLAWYQDKPGKAPKLLIYWASTRESGVPSRFSGSGSGTDFTLTISSLQPEDFATYYCQQYYAYPWTFGQGTKVEIKRTVAAPSVFIFPPSDEQLKSGTASVVCLLNNFYPREAKVQWKVDNALQSGNSQESVTEQDSKDSTYSLSSTLTLSKADYEKHKVYACEVTHQGLSSPVTKSFNRGEC
heavy 2: QVQLVQSGAEVKKPGASVKVSCKASGYTFTSHWMHWVRYAPGQGLEWIGEFNPSNGRTNYNEKFKSKATMTVDTSTNTAYMELSSLRSEDTAVYYCASRDYDYDGRYFDYWGRGTLVTVSSASTKGPSVFPLAPSSKSTSGGTAALGCLVKDYFPEPVTVSWNSGALTSGVHTFPAVLQSSGLYSLSSVVTVPSSSLGTQTYICNVNHKPSNTKVDKKVEPKSCDKTHTCPPCPAPELLGGPSVFLFPPKPKDTLMISRTPEVTCVVVDVSHEDPEVKFNWYVDGVEVHNAKTKPREEQYQSTYRVVSVLTVLHQDWLNGKEYKCKVSNKALPAPIEKTISKAKGQPRRPRVYTLPPSREEMTKNQVSLVCLVKGFYPSDIAVEWESNGQPENNYKTTPPVLDSDGSFFLYSVLTVDKSRWQQGNVFSCSVMHEALHNHYTQKSLSLSPG
light 2: DIQMTQSPSSLSASVGDRVTITCSASSSVTYMYWYQRKPGDAPKLLIYDTSNLASGVPSRFSGSGSGTDYTFTISSLQPEDIATYYCQQWSSHIFTFGQGTKVEIKRTVAAPSVFIFPPSDEQLKSGTASVVCLLNNFYPREAKVQWKVDNALQSGNSQESVTEQDSKDSTYSLSSTLTLSKADYEKHKVYACEVTHQGLSSPVTKSFNRGEC
notes: Human IgG1; also called MetMAb × Matuzumab Wild-Type
B2: MetMAb × Matuzumab IgG BsAb, CH1/Cκ design 14.1.2 (bispecific antibody)
heavy 1: B1 heavy 1 with K149A, K215E
light 1: B1 light 1 with E129K, S137R
heavy 2: B1 heavy 2
light 2: B1 light 2
notes: Human IgG1; also called MetMAb × Matuzumab 14.1.2
B3: MetMAb × Matuzumab IgG BsAb, CH1/Cκ design 14.3.1.1 (bispecific antibody)
heavy 1: B1 heavy 1 with K149A, S185A
light 1: B1 light 1 with S137R, S182I
heavy 2: B1 heavy 2 with K217E
light 2: B1 light 2 with E122K
notes: Human IgG1; also called MetMAb × Matuzumab 14.3.1.1
B4: MetMAb × Matuzumab IgG BsAb, CH1/Cκ design 14.3.1.2 (bispecific antibody)
heavy 1: B1 heavy 1 with K149A, S185G
light 1: B1 light 1 with S137R, S182I
heavy 2: B1 heavy 2 with K217E
light 2: B1 light 2 with E122K
notes: Human IgG1; also called MetMAb × Matuzumab 14.3.1.2
B5: Pertuzumab × Matuzumab IgG BsAb, CH1/Cκ Wild-Type (AB / H4DR variable domain designs, 7.8.60 CH3, N297Q) (bispecific antibody)
heavy 1: EVQLVESGGGLVQPGGSLRLSCAASGFTFTDYTMDWVRKAPGKGLEWVADVNPNSGGSIYNQEFKGRFTLSVDRSKNTLYLQMNSLRAEDTAVYYCARNLGPSFYFDYWGQGTLVTVSSASTKGPSVFPLAPSSKSTSGGTAALGCLVKDYFPEPVTVSWNSGALTSGVHTFPAVLQSSGLYSLSSVVTVPSSSLGTQTYICNVNHKPSNTKVDKKVEPKSCDKTHTCPPCPAPELLGGPSVFLFPPKPKDTLMISRTPEVTCVVVDVSHEDPEVKFNWYVDGVEVHNAKTKPREEQYQSTYRVVSVLTVLHQDWLNGKEYKCKVSNKALPAPIEKTISKAKGQPREPQVYTLPPSREEMTDNQVSLTCLVKGFYPSDIAVEWESNGQPENNYKTTPPVLMSDGSFFLASKLTVDKSRWQQGNVFSCSVMHEALHNHYTQKSLSLSPG
light 1: RIQMTQSPSSLSASVGDRVTITCKASQDVSIGVAWYQDKPGKAPKLLIYSASYRYTGVPSRFSGSGSGTDFTLTISSLQPEDFATYYCQQYYIYPYTFGQGTKVEIKRTVAAPSVFIFPPSDEQLKSGTASVVCLLNNFYPREAKVQWKVDNALQSGNSQESVTEQDSKDSTYSLSSTLTLSKADYEKHKVYACEVTHQGLSSPVTKSFNRGEC
heavy 2: B1 heavy 2
light 2: B1 light 2
notes: Human IgG1; also called Pertuzumab × Matuzumab Wild-Type
B6: Pertuzumab × Matuzumab IgG BsAb, CH1/Cκ design 14.1.2 (bispecific antibody)
heavy 1: B5 heavy 1 with K149A, K215E
light 1: B5 light 1 with E123K, S131R
heavy 2: B1 heavy 2
light 2: B1 light 2
notes: Human IgG1; also called Pertuzumab × Matuzumab 14.1.2
B7: Pertuzumab × BHA10 IgG BsAb, CH1/Cκ Wild-Type (AB / H4DR variable domain designs, 7.8.60 CH3, N297Q) (bispecific antibody)
heavy 1: B5 heavy 1
light 1: B5 light 1
heavy 2: QVQLVQSGAEVKKPGSSVKVSCKASGYTFTTYYLHWVRYAPGQGLEWMGWIYPGNVHAQYNEKFKGRVTITADKSTSTAYMELSSLRSEDTAVYYCARSWEGFPYWGRGTTVTVSSASTKGPSVFPLAPSSKSTSGGTAALGCLVKDYFPEPVTVSWNSGALTSGVHTFPAVLQSSGLYSLSSVVTVPSSSLGTQTYICNVNHKPSNTKVDKKVEPKSCDKTHTCPPCPAPELLGGPSVFLFPPKPKDTLMISRTPEVTCVVVDVSHEDPEVKFNWYVDGVEVHNAKTKPREEQYQSTYRVVSVLTVLHQDWLNGKEYKCKVSNKALPAPIEKTISKAKGQPRRPRVYTLPPSREEMTKNQVSLVCLVKGFYPSDIAVEWESNGQPENNYKTTPPVLDSDGSFFLYSVLTVDKSRWQQGNVFSCSVMHEALHNHYTQKSLSLSPG
light 2: DIQMTQSPSSLSASVGDRVTITCKASQNVGINVAWYQRKPGDAPKSLISSASYRYSGVPSRFSGSGSGTDFTLTISSLQPEDFATYFCQQYDTYPFTFGQGTKVEIKRTVAAPSVFIFPPSDEQLKSGTASVVCLLNNFYPREAKVQWKVDNALQSGNSQESVTEQDSKDSTYSLSSTLTLSKADYEKHKVYACEVTHQGLSSPVTKSFNRGEC
notes: Human IgG1; also called Pertuzumab × BHA10 Wild-Type
B8: Pertuzumab × BHA10 IgG BsAb, CH1/Cκ design 14.1.2 (bispecific antibody)
heavy 1: B5 heavy 1 with K149A, K215E
light 1: B5 light 1 with E123K, S131R
heavy 2: B7 heavy 2
light 2: B7 light 2
notes: Human IgG1; also called Pertuzumab × BHA10 14.1.2
B9: Pertuzumab × BHA10 IgG BsAb, CH1/Cκ design 14.3.1.2 (bispecific antibody)
heavy 1: B5 heavy 1 with K149A, S185G
light 1: B5 light 1 with S131R, S176I
heavy 2: B7 heavy 2 with K212E
light 2: B7 light 2 with E123K
notes: Human IgG1; also called Pertuzumab × BHA10 14.3.1.2
B10: Pertuzumab × BHA10 IgG BsAb, CH1/Cκ design 14.3.1.1 (bispecific antibody)
heavy 1: B5 heavy 1 with K149A, S185A
light 1: B5 light 1 with S131R, S176I
heavy 2: B7 heavy 2 with K212E
light 2: B7 light 2 with E123K
notes: Human IgG1; also called Pertuzumab × BHA10 14.3.1.1

Each binder was assayed against T1, hHER-2-Fc (human, UniProt P04626 23-652) (assay: sandwich ELISA with mis-matched antigens).
T1 construct: Bought (R&D systems); Coated on the plate; not shown: Fc of the bought fusion protein
Procedure: (§1) The dual-binding activity of the same synthesized IgG BsAbs is assessed using a sandwich ELISA. […] Sandwich ELISAs are developed for detecting the four different BsAb test articles; one for detecting anti-HER-2/anti-EGFR BsAb activity, one for detecting anti-HER-2/anti-LTPR BsAb activity, one for detecting anti-cMET/anti-EGFR BsAb activity and one for detecting anti-cMET/anti-LTPR BsAb activity. For all ELISAs, clear 96-well round bottom high binding Immulon microtiter plates (Greiner bio-one, cat #650061) are coated overnight at 2-8° C. with 50 μL/well 1 μg/mL hHER-2-Fc or 1 μg/mL hHGFR(cMet)-Fc (both from R&D systems) in a 50 mM Na2CO3 pH 8.3 buffer. The plates are washed 4 times with PBST and blocked with 200 μL/well casein buffer (Pierce) for 1 hr at room temperature. The plates are then washed 4 times with PBST and the parental IgG controls or BsAb IgG test articles are added at 50 μL/well and […] and serially diluted 1:3 down the plate. The controls and test articles are incubated on the plate for 1 hr at room temperature. The plates are then washed 4 times with PBST and 50 μL/well 1 μg/mL hEGFR-Fc-biotin or hLTβR-Fc-biotin (both from R&D systems) is added for 1 hr at room temperature. The plates are then washed 4 times with PBST followed by the addition of a 50 μL/well streptavidin-AP (Jackson Immunoresearch Labs Cat. #016-050-084) diluted 1:1000 in casein buffer. The streptavidin-AP is incubated in each well for 1 hr at room temperature. The plates are then washed 4 times with PBST and 100 μL/well 1-step PNPP substrate is added (Thermo Scientific Cat. #37621). After approximately 5-15 minutes, plates are read for Absorbance (405 nm) using a SPECTRAMAX® UV plate reader (Molecular Devices). Biotin-labeling of the hEGFR-Fc and hLTβR-Fc proteins is performed using EZ-LINK™ Sulfo-NHS-LC-Biotin (Thermo Scientific Cat. #21327) according to the manufacturer's protocol.

Binding result, no binding:
B1
B2
B3
B4

What follows are binders tested against T2, hLTβR-Fc-biotin (human, UniProt P36941 28-227, limits assumed, biotin-labelled with EZ-LINK Sulfo-NHS-LC-Biotin) (assay: sandwich ELISA with mis-matched antigens).
T2 construct: Bought (R&D systems); Detection antigen of the sandwich; also called LTPR (as printed once); not shown: Fc of the bought fusion protein
Procedure: as §1

T2 sequence (P36941 28-227 limits assumed): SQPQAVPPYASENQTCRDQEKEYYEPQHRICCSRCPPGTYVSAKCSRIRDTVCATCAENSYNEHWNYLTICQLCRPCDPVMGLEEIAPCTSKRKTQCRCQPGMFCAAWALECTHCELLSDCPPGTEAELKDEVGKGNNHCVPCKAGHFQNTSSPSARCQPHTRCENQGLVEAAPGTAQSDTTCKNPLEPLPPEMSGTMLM

Binding result, no binding:
B1
B2
B3
B4
B5
B6

The binders below were run against T3, hHGFR(cMet)-Fc (human, UniProt P08581 25-932) (assay: sandwich ELISA with mis-matched antigens).
T3 construct: Bought (R&D systems); Coated on the plate; not shown: Fc of the bought fusion protein
Procedure: as §1

T3 sequence (P08581 25-932): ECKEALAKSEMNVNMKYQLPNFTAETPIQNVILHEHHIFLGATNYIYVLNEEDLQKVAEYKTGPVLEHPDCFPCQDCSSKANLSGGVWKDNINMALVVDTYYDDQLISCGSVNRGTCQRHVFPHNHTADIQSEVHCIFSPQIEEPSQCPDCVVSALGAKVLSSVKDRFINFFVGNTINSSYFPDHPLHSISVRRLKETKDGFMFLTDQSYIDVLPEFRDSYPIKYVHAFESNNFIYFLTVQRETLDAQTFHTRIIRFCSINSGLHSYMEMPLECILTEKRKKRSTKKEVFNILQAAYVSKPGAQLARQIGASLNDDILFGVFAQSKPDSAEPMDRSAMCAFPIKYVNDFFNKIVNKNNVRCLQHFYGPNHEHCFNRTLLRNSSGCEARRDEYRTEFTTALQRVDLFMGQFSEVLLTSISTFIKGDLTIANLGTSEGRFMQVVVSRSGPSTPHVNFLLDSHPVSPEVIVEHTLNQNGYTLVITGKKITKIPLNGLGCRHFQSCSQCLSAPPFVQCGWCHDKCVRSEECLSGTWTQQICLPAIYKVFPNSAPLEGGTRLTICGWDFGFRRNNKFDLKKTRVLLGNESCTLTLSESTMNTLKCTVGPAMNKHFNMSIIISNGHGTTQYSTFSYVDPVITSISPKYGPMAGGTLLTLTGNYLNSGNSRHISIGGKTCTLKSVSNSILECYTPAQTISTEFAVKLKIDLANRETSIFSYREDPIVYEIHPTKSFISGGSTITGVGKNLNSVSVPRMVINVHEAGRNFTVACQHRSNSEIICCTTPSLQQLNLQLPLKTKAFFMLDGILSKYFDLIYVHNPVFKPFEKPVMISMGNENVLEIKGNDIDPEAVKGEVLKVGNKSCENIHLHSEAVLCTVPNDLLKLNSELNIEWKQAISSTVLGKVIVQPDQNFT

Binding result, no binding:
B7
B5
B6
B8
B9
B10

What follows are binders tested against T4, hEGFR-Fc-biotin (human, UniProt P00533 25-645, biotin-labelled with EZ-LINK Sulfo-NHS-LC-Biotin) (assay: sandwich ELISA with mis-matched antigens).
T4 construct: Bought (R&D systems); Detection antigen of the sandwich; not shown: Fc of the bought fusion protein
Procedure: as §1

Binding result, no binding:
B7
B8
B9
B10
